Experimental data reported in patent US20240409647A1, “BISPECIFIC BINDING PROTEINS AGAINST ALARMINS AND USES THEREOF” (SINOMAB BIOSCIENCE LIMITED, priority 2022, published 2024).

What was measured:
[1] = biological target: T1, hIL17RC (Homo sapiens, UniProt Q8NAC3); assay: ELISA, SM17 specificity against IL-17 receptor subunits (IL17RC); type: binding; conditions: 0.4 to 0.00064 μg/mL
T1 construct: purchased R&D systems
T1 sequence (Q8NAC3 21-791): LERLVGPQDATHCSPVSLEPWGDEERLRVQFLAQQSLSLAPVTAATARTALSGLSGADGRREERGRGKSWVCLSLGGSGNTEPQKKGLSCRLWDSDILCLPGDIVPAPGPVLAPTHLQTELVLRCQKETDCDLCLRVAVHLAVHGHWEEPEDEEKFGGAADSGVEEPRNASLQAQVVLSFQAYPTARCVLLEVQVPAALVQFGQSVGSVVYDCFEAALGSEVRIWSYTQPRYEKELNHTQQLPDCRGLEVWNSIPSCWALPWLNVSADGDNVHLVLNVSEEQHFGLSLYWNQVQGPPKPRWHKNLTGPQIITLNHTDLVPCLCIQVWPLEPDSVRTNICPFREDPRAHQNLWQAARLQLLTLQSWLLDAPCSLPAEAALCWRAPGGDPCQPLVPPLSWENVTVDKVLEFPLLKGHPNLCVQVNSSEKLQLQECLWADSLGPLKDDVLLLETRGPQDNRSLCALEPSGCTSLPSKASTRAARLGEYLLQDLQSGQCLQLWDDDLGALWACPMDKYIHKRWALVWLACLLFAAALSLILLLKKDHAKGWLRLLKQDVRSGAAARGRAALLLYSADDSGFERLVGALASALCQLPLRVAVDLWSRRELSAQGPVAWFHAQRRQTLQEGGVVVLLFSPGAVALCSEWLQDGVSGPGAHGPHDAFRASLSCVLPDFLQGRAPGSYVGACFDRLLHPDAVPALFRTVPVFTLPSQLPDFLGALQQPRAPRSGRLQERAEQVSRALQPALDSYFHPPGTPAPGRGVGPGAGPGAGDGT
Protocol: A standard ELISA method was used to determine the specificity of SM17 against other human IL17 receptor subunits. Similarly, serially diluted SM17 at different concentrations (final concentrations at 0.4, 0.08, 0.016, 0.0032 and 0.00064 μg/m, respectively) was added to the wells of ELISA plates coated either with human IL-17 receptor subunits A, C, D and E (IL17RA, IL17RC, IL17RD, and IL17RE) (R&D systems).

[2] = biological target: T2, rhesus monkey IL17RB expressed on HEK293 cells (Macaca mulatta, UniProt H9FWT9); assay: Flow cytometry, SM17 binding to HEK293 transfected with rhesus monkey IL-17RB; conditions: SM17 1 μg/ml
T2 construct: transfected either with full-length human or rhesus monkey IL-17RB (SinoBiological, Beijing, China); host or cells: HEK293
T2 sequence (H9FWT9 18-502): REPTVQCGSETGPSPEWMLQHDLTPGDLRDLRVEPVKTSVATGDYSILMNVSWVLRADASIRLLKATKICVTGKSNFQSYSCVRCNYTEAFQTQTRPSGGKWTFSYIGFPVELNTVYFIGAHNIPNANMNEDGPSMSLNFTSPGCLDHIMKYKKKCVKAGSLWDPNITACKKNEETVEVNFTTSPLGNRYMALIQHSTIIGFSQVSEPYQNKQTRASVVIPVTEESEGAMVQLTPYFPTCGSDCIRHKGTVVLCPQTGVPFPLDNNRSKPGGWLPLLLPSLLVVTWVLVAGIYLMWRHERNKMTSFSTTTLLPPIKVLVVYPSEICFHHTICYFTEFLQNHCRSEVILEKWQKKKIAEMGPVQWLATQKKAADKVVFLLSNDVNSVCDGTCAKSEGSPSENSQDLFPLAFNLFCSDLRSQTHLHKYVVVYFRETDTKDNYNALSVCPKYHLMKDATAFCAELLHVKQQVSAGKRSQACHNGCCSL
Protocol: HEK293 cells (ATCC, Manassas, VA) transfected either with full-length human or rhesus monkey IL-17RB (SinoBiological, Beijing, China) were examined for binding to SM17 following standard protocol for flow cytometry. Wild-type HEK293 stained with IgG4 isotype control (Sino Biological) was used as the negative control and for gating purpose. Briefly, HEK293 cells at a density of 3×10^5 cells were seeded into each well of a 6-well plate. On the next day, human or rhesus Il-17RB full length cDNA were first cloned into pCMV3-untagged expression plasmid through standard molecular cloning technique, and then expression plasmids for human or rhesus IL-17RB were transfected into HEK293 cells by lipofection (Lipofectamine 3000 reagent; Thermo Fisher Scientific). Transfected cells were trypsinized, harvested, and fixed with 4% paraformaldehyde (5 minutes). SM17, or human IgG4 control at 1 μg/ml in washing buffer (3% BSA in PBS) were added to the resuspend cells for incubation at RT for 30 min before Alexa Fluor® 647-conjugated goat anti-human IgG specific antibody (1:2000 dilution in washing buffer) (Jackson ImmunoResearch) was added for flow cytometry analysis using the BD FACSVerse cell analyzer (Becton Dickenson, Franklin Lakes, NJ).

[3] = biological target: T3, TSLP (Homo sapiens, UniProt Q969D9); assay: ELISA, antigen binding specificity of bsBp (TSLP); design: key: −: no binding; +: weak; ++: moderate; +++: strong binding; N/A refers to no binding affinity; conditions: 33.5 nM; antigen coated at 2 μg/mL
T3 construct: purchased R&D systems
Protocol: Binding specificities of bsBp were evaluated by standard ELISA assays. Briefly, ELISA strips were coated with the respective target antigens, including IL17RB, IL-33, or TSLP (R&D systems) at a final concentration of 2 μg/mL. Bispecific antibodies were added at 33.5 nM to ELISA strips coated with the desired antigen. After incubation under room temperature for 2 hours, ELISA strips were washed five times with PBS. […] No result is provided for SM17-human TSLPR as the yield was too low to be detected.

binding of SM17 to IL17RC (in words) [1]: No obvious bindings
binding of SM17 to RhIL17RB-HEK293 [2]: 39%
Intensity of specific antigen binding, TSLP coated on ELISA strips [3]: +
Substance: SM17: humanized anti-IL17RB monoclonal antibody, human IgG4 isotype; HC SEQ ID NO: 32, LC SEQ ID NO: 33
